1 molecule from patent US20170296524A1 can be followed below.

In the test the target is T1, MCT1 (monocarboxylate transporter 1), endogenous (human), P53985.
T1 chain: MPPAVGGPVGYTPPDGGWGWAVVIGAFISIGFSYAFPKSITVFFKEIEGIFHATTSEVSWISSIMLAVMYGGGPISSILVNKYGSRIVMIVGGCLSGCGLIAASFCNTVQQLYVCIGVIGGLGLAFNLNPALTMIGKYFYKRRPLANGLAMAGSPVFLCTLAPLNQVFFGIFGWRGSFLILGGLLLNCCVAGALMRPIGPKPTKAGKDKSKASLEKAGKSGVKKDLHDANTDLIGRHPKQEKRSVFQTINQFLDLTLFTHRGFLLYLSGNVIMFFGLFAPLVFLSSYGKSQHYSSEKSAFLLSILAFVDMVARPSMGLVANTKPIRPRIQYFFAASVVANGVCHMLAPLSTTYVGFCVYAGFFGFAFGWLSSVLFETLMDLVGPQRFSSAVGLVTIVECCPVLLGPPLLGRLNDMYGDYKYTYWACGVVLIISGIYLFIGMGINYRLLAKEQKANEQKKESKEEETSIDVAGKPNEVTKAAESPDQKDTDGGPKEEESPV
As to the kind of experiment: tandem affinity purification of CRBN-SF, mass spectrometry. The settings on record: remark: other sources report otherwise.

B1: Strep-Flag tagged CRBN (CRBN-SF), Q96SW2 1-442 (protein, human, UniProt Q96SW2 1-442, looked up, not shown: small tags and cut ends)
chain: MAGEGDQQDAAHNMGNHLPLLPAESEEEDEMEVEDQDSKEAKKPNIINFDTSLPTSHTYLGADMEEFHGRTLHDDDSCQVIPVLPQVMMILIPGQTLPLQLFHPQEVSMVRNLIQKDRTFAVLAYSNVQEREAQFGTTAEIYAYREEQDFGIEIVKVKAIGRQRFKVLELRTQSDGIQQAKVQILPECVLPSTMSAVQLESLNKCQIFPSKPVSREDQCSYKWWQKYQKRKFHCANLTSWPRWLYSLYDAETLMDRIKKQLREWDENLKDDSLPSNPIDFSYRVAACLPIDDVLRIQLLKIGSAIQRLRCELDIMNKCTSLCCKQCQETEITTKNEIFSLSLCGPMAAYVNPHGYVHETLTVYKACNLNLIGRPSTEHSWFPGYAWTVAQCKICASHIGWKFTATKKDMSPQKFWGLTRSALLPTIPDTEDEISPDKVILCL
Consider B1, for which the unique peptides identified in the screen (unique peptides) came to 6.
